Measurements reported in the supplement of paper PMC10126150.
± gives the standard deviation of the averaged measurements.

Test system: ATP
Assay: switch fluorescence ratio, 500 uM ATP over buffer (Cy3 cluster intensity, sum of 5 cycles each) (fold (ratio)); higher = stronger signal-on switching upon ATP binding; sequences stand for … in TCGTCGGCAGCGTCAGATGTGTATAAGAGACAGTTTTTTTTTTTTTTTTTTTTTTTTT…TC
Conditions: aptamer strand: ATP DNA aptamer (quencher-CACCTGGGGGAGTATTGCGGAGGAAGG + anchor), 100 nM annealed; ATP concentration: 500 uM
In short: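 Switching-strand clusters labelled with Cy3 on a modified Illumina MiSeq flow-cell were annealed to 100 nM quencher-labelled ATP aptamer, imaged in selection buffer, and re-imaged after 15 min with 500 uM ATP at 22 °C. This was done over five cycles with NaOH stripping and re-annealing in between. The fluorescence ratio is summed target-cycle over summed buffer-cycle Cy3 intensity per cluster, averaged per switch-domain sequence, excluding clusters outside 100-1000 RFU.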
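Note: ATP exposure 15 min at 22 °C before imaging.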

Row | Sequence | switch fluorescence ratio
1 | GAATGCCTGT | 1.033 ± 0.0065
2 | GAATGGCACA | 0.998 ± 0.016
3 | GAATGGGGAA | 1.02 ± 0.021
4 | GAATGGGGCT | 0.987 ± 0.037
5 | GAATGGGGGA | 1.02 ± 0.019
6 | GAATGGGTCG | 0.989 ± 0.033
7 | GAATGGGTTG | 1.01 ± 0.028
8 | GAATGTAGCA | 1.03 ± 0.011
9 | GAATGTAGGG | 0.967 ± 0.046
10 | GAATGTCCGT | 0.992 ± 0.015
11 | GAATGTGCAT | 1.05 ± 0.047
12 | GAATGTGGGG | 0.982 ± 0.019
13 | GAATGTTCGG | 0.999 ± 0.051
14 | GAATGTTCTT | 1.0298 ± 6.1e-05
15 | GAATTAAACG | 1.02 ± 0.024
16 | GAATTAAATG | 1.037 ± 0.0019
17 | GAATTAGGTG | 1.21 ± 0.029
18 | GAATTATATT | 0.988 ± 0.021
19 | GAATTCAGGG | 0.99 ± 0.014
20 | GAATTCAGTG | 0.9953 ± 0.0096
21 | GAATTGAGAA | 0.972 ± 0.035
22 | GAATTGGAAG | 0.968 ± 0.025
23 | GAATTGTATT | 0.993 ± 0.06
24 | GAATTTAGCA | 1.02 ± 0.031
25 | GAATTTGAGT | 0.9741 ± 0.0089

Row | Sequence | switch fluorescence ratio
26 | GAATTTGTTG | 1.001 ± 0.0063
27 | GAATTTTCGC | 0.995 ± 0.029
28 | GAATTTTGGG | 1 ± 0.032
29 | GACAACGTA | 0.9967 ± 0.0095
30 | GACAATTTCT | 1.02 ± 0.072
31 | GACACACCCG | 1.13 ± 0.046
32 | GACACCATCC | 1.55 ± 0.18
33 | GACACGAGGT | 1.013 ± 0.0084
34 | GACACGGGGA | 1.01 ± 0.041
35 | GACAGACGGG | 1.13 ± 0.049
36 | GACAGAGGTG | 1.03 ± 0.031
37 | GACAGCAGGG | 1.03 ± 0.025
38 | GACAGGGGGA | 1.035 ± 0.0072
39 | GACAGGTGAG | 1.15 ± 0.058
40 | GACAGTCTCA | 1.02 ± 0.021
41 | GACAGTGGTA | 0.973 ± 0.013
42 | GACAGTTTGT | 1.01 ± 0.033
43 | GACATAAATG | 1.03 ± 0.12
44 | GACATAGACC | 1.048 ± 0.0075
45 | GACATTTTGC | 1.05 ± 0.028
46 | GACCAAAGGG | 1.03 ± 0.058
47 | GACCAAATTT | 1.02 ± 0.064
48 | GACCACAGCG | 1.02 ± 0.029
49 | GACCAGGTTA | 1.181 ± 0.0052
50 | GACCATGGCA | 1.01 ± 0.045

Row | Sequence | switch fluorescence ratio
51 | GACCCTGATC | 1.17 ± 0.058
52 | GACCGATTTT | 0.989 ± 0.015
53 | GACCGGGTAA | 1.02 ± 0.033
54 | GACCGTTGGA | 0.987 ± 0.037
55 | GACCGTTTGA | 1.03 ± 0.03
56 | GACCTAAGGT | 0.988 ± 0.035
57 | GACCTCACAT | 1.18 ± 0.022
58 | GACCTGTAAT | 1.025 ± 0.0013
59 | GACCTGTTTT | 0.987 ± 0.063
60 | GACCTTGATT | 1.03 ± 0.029
61 | GACCTTGTGC | 1.03 ± 0.042
62 | GACGAATGGG | 0.985 ± 0.015
63 | GACGACGTTA | 1.55 ± 0.026
64 | GACGAGATAG | 1.17 ± 0.076
65 | GACGAGCGGG | 1 ± 0.025
66 | GACGAGGG | 1.03 ± 0.038
67 | GACGATACGT | 1.14 ± 0.038
68 | GACGATCCTG | 1.08 ± 0.043
69 | GACGATGACG | 0.987 ± 0.014
70 | GACGCACTAA | 2.76 ± 0.44
71 | GACGCAGGTG | 2.5 ± 0.24
72 | GACGCGCGTA | 1.01 ± 0.027
73 | GACGCTGTGC | 3.6 ± 0.41
74 | GACGGAGGGG | 1.01 ± 0.027
75 | GACGGATTTA | 0.988 ± 0.035

Row | Sequence | switch fluorescence ratio
76 | GACGGCGCTG | 0.957 ± 0.049
77 | GACGGCTCAG | 1 ± 0.015
78 | GACGGGGAGA | 1.06 ± 0.038
79 | GACGGGGTGT | 1.059 ± 0.0039
80 | GACGGGTGAG | 0.9917 ± 0.0087
81 | GACGGGTGGC | 1.11 ± 0.02
82 | GACGGGTTTC | 0.991 ± 0.017
83 | GACGTAAAAG | 1.097 ± 0.0096
84 | GACGTAAATA | 1.75 ± 0.18
85 | GACGTAACGG | 1.082 ± 0.0014
86 | GACGTAAGTT | 1.02 ± 0.018
87 | GACGTGGAAG | 1.01 ± 0.024
88 | GACGTGTGTC | 0.983 ± 0.023
89 | GACGTTATTG | 1.03 ± 0.013
90 | GACGTTCATA | 1.083 ± 0.0089
91 | GACGTTGAGG | 0.983 ± 0.023
92 | GACGTTGCTA | 1.06 ± 0.019
93 | GACGTTTCAG | 0.95 ± 0.02
94 | GACGTTTGGG | 0.982 ± 0.022
95 | GACGTTTTAG | 0.993 ± 0.052
96 | GACGTTTTTA | 1.01 ± 0.046
97 | GACTAAGTTT | 1.018 ± 0.0076
98 | GACTAATGAT | 1.02 ± 0.024
99 | GACTAATTGG | 0.957 ± 0.013
100 | GACTACATTA | 1.03 ± 0.025

Row | Sequence | switch fluorescence ratio
101 | GACTACGGCC | 1.049 ± 0.0065
102 | GACTAGGCGG | 1.12 ± 0.2
103 | GACTAGTATA | 1.01 ± 0.04
104 | GACTATTAGC | 0.984 ± 0.028
105 | GACTCAGAGG | 1.03 ± 0.011
106 | GACTCCTGAG | 0.98 ± 0.033
107 | GACTGACTGG | 0.996 ± 0.018
108 | GACTGGAGGA | 0.9851 ± 0.008
109 | GACTGGGGCA | 1.017 ± 0.0053
110 | GACTGGTTGC | 1 ± 0.053
111 | GACTGTCGGC | 1.02 ± 0.024
112 | GACTGTTAGG | 1.03 ± 0.016
113 | GACTTAGGAC | 1.02 ± 0.021
114 | GACTTAGGTA | 0.975 ± 0.027
115 | GACTTATCCT | 1.054 ± 0.004
116 | GACTTCCAGG | 1.05 ± 0.026
117 | GACTTCTTAG | 0.9573 ± 0.0041
118 | GACTTTAAGC | 1.01 ± 0.032
119 | GACTTTACTG | 1.06 ± 0.049
120 | GACTTTTAGG | 1.01 ± 0.027
121 | GACTTTTATA | 0.996 ± 0.026
122 | GAGAAAACCG | 1.06 ± 0.092
123 | GAGAAAATTT | 0.989 ± 0.043
124 | GAGAAAGGGG | 1.06 ± 0.14
125 | GAGAAAGGTG | 1.09 ± 0.022

Row | Sequence | switch fluorescence ratio
126 | GAGAAAGTGG | 0.9924 ± 0.001
127 | GAGAAATTGG | 1 ± 0.022
128 | GAGAAGGGAG | 0.9895 ± 0.0055
129 | GAGAATCGGT | 1.03 ± 0.078
130 | GAGAATGGCA | 0.964 ± 0.028
131 | GAGAATTGGG | 1.02 ± 0.061
132 | GAGACAGTTA | 0.992 ± 0.014
133 | GAGACCCGTG | 0.9867 ± 0.0059
134 | GAGACGTTTG | 1.02 ± 0.054
135 | GAGACTAGGT | 1.04 ± 0.025
136 | GAGACTGGTT | 1.03 ± 0.034
137 | GAGAGAAAAT | 1.49 ± 0.63
138 | GAGAGAGGTG | 1.0377 ± 0.00093
139 | GAGAGATAGT | 1.03 ± 0.015
140 | GAGAGGGTAT | 0.966 ± 0.012
141 | GAGAGGGTTG | 0.971 ± 0.033
142 | GAGAGTATGT | 0.998 ± 0.043
143 | GAGAGTCCTT | 0.997 ± 0.015
144 | GAGAGTCTAG | 0.989 ± 0.015
145 | GAGAGTTTTC | 0.985 ± 0.037
146 | GAGATACTCT | 1.03 ± 0.012
147 | GAGATAGTAG | 1 ± 0.015
148 | GAGATCATTG | 1.07 ± 0.057
149 | GAGATGGCAT | 0.987 ± 0.04
150 | GAGATGGGGA | 0.991 ± 0.022

Row | Sequence | switch fluorescence ratio
151 | GAGATGGGTA | 0.997 ± 0.027
152 | GAGATTAGGT | 0.977 ± 0.015
153 | GAGATTGCGG | 0.9849 ± 0.0012
154 | GAGATTTGAC | 1.01 ± 0.025
155 | GAGCAATATA | 5.13 ± 1.7
156 | GAGCAATGTG | 1.22 ± 0.3
157 | GAGCAGTGCA | 1.03 ± 0.037
158 | GAGCATTCCG | 1.003 ± 0.0051
159 | GAGCCGGAGC | 0.993 ± 0.012
160 | GAGCGACCTG | 0.989 ± 0.016
161 | GAGCGAGGAA | 0.98171 ± 0.00093
162 | GAGCGAGGGA | 1.14 ± 0.052
163 | GAGCGCGAGG | 0.99 ± 0.037
164 | GAGCGTAACG | 0.9999 ± 0.0027
165 | GAGCGTGGGA | 1.11 ± 0.081
166 | GAGCTACTGA | 1.011 ± 0.0085
167 | GAGCTATCAC | 1.16 ± 0.035
168 | GAGCTATGTG | 1.03 ± 0.0011
169 | GAGCTGGTGG | 0.96 ± 0.019
170 | GAGCTTACGG | 1.064 ± 0.01
171 | GAGCTTCTTG | 1.017 ± 0.0063
172 | GAGGAAAAAT | 1.062 ± 0.0021
173 | GAGGAAGGAC | 1.04 ± 0.014
174 | GAGGACTCGT | 1.01 ± 0.016
175 | GAGGAGGTTT | 0.968 ± 0.017

Row | Sequence | switch fluorescence ratio
176 | GAGGATATGT | 0.971 ± 0.035
177 | GAGGATCAGG | 1.03 ± 0.056
178 | GAGGATCTTG | 1 ± 0.031
179 | GAGGATGATC | 1.01 ± 0.032
180 | GAGGATGGGA | 0.98 ± 0.022
181 | GAGGCCATTT | 1.01 ± 0.046
182 | GAGGCCGTTG | 1.02 ± 0.023
183 | GAGGCGAGTC | 1.06 ± 0.029
184 | GAGGCGGGGA | 1.01 ± 0.03
185 | GAGGCGTATT | 0.988 ± 0.049
186 | GAGGCGTCAA | 0.997 ± 0.027
187 | GAGGCTAGGG | 1.05 ± 0.031
188 | GAGGCTAGGT | 1.01 ± 0.029
189 | GAGGCTATGG | 1.01 ± 0.022
190 | GAGGCTCATT | 0.964 ± 0.035
191 | GAGGCTTAAT | 0.9822 ± 0.0078
192 | GAGGCTTTTT | 0.979 ± 0.024
193 | GAGGGAAAAG | 1.01 ± 0.032
194 | GAGGGAAGTA | 1.06 ± 0.17
195 | GAGGGACGGG | 1.02 ± 0.025
196 | GAGGGAGGTG | 1.02 ± 0.018
197 | GAGGGAGTGG | 1.01 ± 0.037
198 | GAGGGATTCT | 0.99037 ± 0.00064
199 | GAGGGATTTT | 1.02 ± 0.017
200 | GAGGGCAATC | 2.76 ± 0.64
